The target of one test is HLA-A*23:01. The test is described as follows: IEDB peptide-MHC binding, purified MHC/competitive/radioactivity; filed as Kd, often an IC50 or EC50 that approximates it; ≥ and ≤ were set here for values at or beyond the usual limits of such assays.
Another test concerns the target HLA-A*26:01. The test is described as above.
A further test has as its target HLA-A*01:01. Described as above.
Another test addresses HLA-A*29:02. The description is as above.
A further test has as its target HLA-A*30:02. The description is as above.
In a further test the target is HLA-A*24:02. The description is as above.
Test [1] concerns the target HLA-A*31:01. The test is described as follows: IEDB peptide-MHC binding, purified MHC/direct/fluorescence; filed as Kd, often an IC50 or EC50 that approximates it; ≥ and ≤ were set here for values at or beyond the usual limits of such assays. The following applies: source organism: SARS-CoV1.
The next test addresses HLA-A*68:01. The test is described as follows: IEDB peptide-MHC binding, purified MHC/competitive/radioactivity; filed as Kd, often an IC50 or EC50 that approximates it; ≥ and ≤ were set here for values at or beyond the usual limits of such assays.
The next test concerns the target HLA-A*33:01. Described as above.
The next test addresses HLA-A*11:01. The description is as above. The following applies: source organism: Vaccinia virus WR.
In another test the target is HLA-A*03:01. The description is as above. The following applies: source organism: Vaccinia virus WR.
Another test addresses HLA-A*30:01. The test is described as above. The conditions noted are these: source organism: Vaccinia virus WR.
For test [2], the target named is HLA-A*31:01. The description is as above. The following applies: source organism: Vaccinia virus WR.
The mark [3] stands for this setting: source organism: SARS coronavirus Tor2.
The mark [4] stands for this setting: source organism: Mammarenavirus brazilense.
Setting [5] is: source organism: Triticum aestivum.
Setting [6] is: source organism: Lassa virus GA391.
Where [7] appears, read: source organism: Vaccinia virus WR.

pKd: −log10 of the molar value.

Regarding NYFKKVDGI, the pKd in the test with HLA-A*23:01 (setting [3]) is 4.94; in the test with HLA-A*26:01 (setting [3]) it was no more than 4.11; in the test with HLA-A*01:01 (setting [3]), no more than 4.29; with HLA-A*29:02 (setting [3]) it was 5.60; with HLA-A*30:02 (setting [3]), 4.93; with HLA-A*24:02 (setting [3]), no more than 4.69.
Regarding PTLVPQEHY, the pKd was no more than 4.11 in the test with HLA-A*23:01 (setting [3]); no more than 3.99 with HLA-A*26:01 (setting [3]); 5.04 with HLA-A*01:01 (setting [3]); 4.96 with HLA-A*29:02 (setting [3]); 5.35 in the test with HLA-A*30:02 (setting [3]); no more than 4.11 in the test with HLA-A*24:02 (setting [3]).
Take QLFKPLTKK: the pKd in the test with HLA-A*31:01 [1] was 6.01; with HLA-A*68:01 (setting [3]) it was 4.77; with HLA-A*33:01 (setting [3]), no more than 4.11.
With QMISSIDRFF, the pKd with HLA-A*23:01 (setting [4]) is 6.12; in the test with HLA-A*29:02 (setting [4]) it was 5.73; with HLA-A*24:02 (setting [4]), 5.33.
QYIKWPWYVW: the pKd with HLA-A*23:01 (setting [3]) is 9.11; with HLA-A*26:01 (setting [3]) it was no more than 4.16; with HLA-A*01:01 (setting [3]), no more than 4.49; with HLA-A*29:02 (setting [3]), 5.41; with HLA-A*30:02 (setting [3]) it was 4.97; with HLA-A*24:02 (setting [3]), 8.61.
For QYPSGQGSF, the pKd with HLA-A*23:01 (setting [5]) is no more than 4.45; with HLA-A*26:01 (setting [5]), no more than 4.31; with HLA-A*01:01 (setting [5]), no more than 4.21; with HLA-A*29:02 (setting [5]), 6.76; with HLA-A*30:02 (setting [5]), 8.93; in the test with HLA-A*24:02 (setting [5]) it was 5.47.
As to RMYIFFASF, the pKd is 7.12 with HLA-A*23:01 (setting [3]); 5.15 with HLA-A*26:01 (setting [3]); no more than 4.68 in the test with HLA-A*01:01 (setting [3]); 5.68 with HLA-A*29:02 (setting [3]); 5.91 with HLA-A*30:02 (setting [3]); 6.97 in the test with HLA-A*24:02 (setting [3]).
On to RYNLDPDSI, for which the pKd is 5.13 with HLA-A*23:01 (setting [4]), no more than 4.47 in the test with HLA-A*29:02 (setting [4]) and 4.75 in the test with HLA-A*24:02 (setting [4]).
Taken in the same sequence, the figures for SIKRNYPYLF were 6.12, 5.63 and 5.99.
As to SWFITQRNF, the pKd in the test with HLA-A*23:01 (setting [3]) was 5.41; with HLA-A*26:01 (setting [3]), no more than 4.11; with HLA-A*01:01 (setting [3]), no more than 4.11; with HLA-A*29:02 (setting [3]), 7.79; with HLA-A*30:02 (setting [3]) it was 9.67; in the test with HLA-A*24:02 (setting [3]), no more than 4.40.
SYATHHDKF: the pKd with HLA-A*23:01 (setting [3]) was no more than 4.04; with HLA-A*26:01 (setting [3]), no more than 4.11; with HLA-A*01:01 (setting [3]), no more than 4.40; with HLA-A*29:02 (setting [3]) it was no more than 4.65; in the test with HLA-A*30:02 (setting [3]), no more than 4.07; with HLA-A*24:02 (setting [3]), no more than 3.98.
As for TTTGIGYQPY, the pKd with HLA-A*23:01 (setting [3]) is no more than 4.15; in the test with HLA-A*26:01 (setting [3]) it was 7.25; with HLA-A*01:01 (setting [3]), 6.90; with HLA-A*29:02 (setting [3]) it was 8.06; with HLA-A*30:02 (setting [3]), 6.69; with HLA-A*24:02 (setting [3]), no more than 4.15.
Consider TYTEIEPKL, for which the pKd in the test with HLA-A*23:01 (setting [3]) was no more than 4.67; with HLA-A*26:01 (setting [3]), no more than 4.11; with HLA-A*01:01 (setting [3]), no more than 4.11; with HLA-A*29:02 (setting [3]) it was 4.91; in the test with HLA-A*30:02 (setting [3]), no more than 4.10; in the test with HLA-A*24:02 (setting [3]), no more than 4.53.
On to VTFQGKFKK, for which the values for the pKd with HLA-A*31:01 [1], with HLA-A*68:01 (setting [3]) and with HLA-A*33:01 (setting [3]) were 7.15, 7.88 and 5.07, respectively.
For VYHITVSQI, the pKd is 7.01 with HLA-A*23:01 (setting [3]); no more than 4.11 with HLA-A*26:01 (setting [3]); no more than 4.50 with HLA-A*01:01 (setting [3]); no more than 4.54 with HLA-A*29:02 (setting [3]); no more than 4.09 with HLA-A*30:02 (setting [3]); 7.58 in the test with HLA-A*24:02 (setting [3]).
Take YCNYSRYWYL: the pKd in the test with HLA-A*23:01 (setting [6]) is 5.94; in the test with HLA-A*26:01 (setting [6]), no more than 4.16; with HLA-A*01:01 (setting [6]), no more than 4.15; with HLA-A*29:02 (setting [6]), 5.08; with HLA-A*30:02 (setting [6]), 4.92; with HLA-A*24:02 (setting [6]), 5.48.
YSELRPDTRY: the pKd with HLA-A*23:01 (setting [3]) is no more than 4.15; in the test with HLA-A*26:01 (setting [3]) it was 4.92; in the test with HLA-A*01:01 (setting [3]), 8.21; with HLA-A*29:02 (setting [3]), 6.85; with HLA-A*30:02 (setting [3]), 6.78; with HLA-A*24:02 (setting [3]), no more than 4.44.
On to YTFFSYLMK, for which the pKd with HLA-A*11:01 is 9.25; with HLA-A*68:01 (setting [7]), 9.09; with HLA-A*03:01, 8.01; with HLA-A*30:01 it was 6.33; in the test with HLA-A*33:01 (setting [7]), 5.52; with HLA-A*31:01 [2], 5.40.

The record behind these values is the Immune Epitope Database (IEDB).
